Patent US20130108613

How the values were obtained:
[1] = biological target: monomeric synthetic human Aβ1-42 peptide
[2] = biological target: oligomeric synthetic human Aβ1-42 preparation

B1: recombinant NIa (nuclear inclusion a) protease of Turnip mosaic virus (TuMV), purified from E. coli (protein)
chain: SNSMFRGLRDYNPISNNICHLTNVSDGASNSLYGVGFGPLILTNRHLFERNNGELVIKSRHGEFVIKNTTQLHLLPIPDRDLLLIRLPKDIPPFPQKLGFRQPEKGERICMVGSNFQTKSITSVVSETSTIMPVENSQFWKHWISTKDGQCGSPMVSTKDGKILGLHSLANFQNSINYFAAFPDDFAEKYLHTIEAHEWVKHWKYNTSAISWGSLNIQASQPSGLFKVSKLISDLDSTAVYAQ
Q: Which “reduction of monomeric Aβ level, densitometry of Western blot (6E10), 3 hrs at 25 °C, without NEM” value [1] does the source give for B1 here?
A: NIa reduced Aβ levels by 64% in the absence of NEM

Q: And the “oligomeric Aβ level with NIa pre-incubated with NEM, Western blot (6E10)” value [2]?
A: This NIa-mediated reduction of oligomeric Aβ was significantly blocked by NEM

Q: And the “oligomeric Aβ remaining after 3 hrs with NIa, densitometry of Western blot (6E10), relative to Aβ only” value [2]?
A: only 19% of oligomeric Aβ remained
